Key:
Assay in all cases: cell-based or functional assay
[1] = biological target: Env of HIV isolate Ce1176.A3 (clade C) (HIV)
[2] = biological target: HIV Env of isolate 3817.v2.c59 (HIV)
[3] = biological target: Env of HIV isolate CNE14 (clade B) (HIV)
[4] = biological target: HIV Env of isolate 16845-2.22 (HIV)
[5] = biological target: Env of HIV isolate MB201.A1 (clade A) (HIV)
[6] = biological target: Env of HIV isolate Q769.d22 (clade A) (HIV)
[7] = biological target: Env of HIV isolate TRJO.58 (clade B) (HIV)
[8] = biological target: Env of HIV isolate ZM215.8 (clade C) (HIV)
[9] = biological target: Env of HIV isolate 6631.v3.c10 (clade C) (HIV)
[10] = biological target: Env of HIV isolate 3337.v2.c6 (clade CD) (HIV)
[11] = biological target: Env of HIV isolate RHPA.7 (clade B) (HIV)
[12] = biological target: Env of HIV isolate CNE40 (clade BC) (HIV)
[13] = biological target: Env of HIV isolate CNE55 (clade AE) (HIV)
[14] = biological target: HIV Env of isolate 6785.v5.c14 (HIV)
[15] = biological target: Env of HIV isolate CNE15 (clade BC) (HIV)
[16] = biological target: Env of HIV isolate CNE12 (clade B) (HIV)
[17] = biological target: Env of HIV isolate Q461.e2 (clade AD) (HIV)
[18] = biological target: Env of HIV isolate 25710-2.43 (clade C) (HIV)
[19] = biological target: Env of SIVmac251.30.SG3
[20] = biological target: Env of HIV isolate ZM176.66 (clade C) (HIV)
[21] = biological target: HIV Env of isolate 3016.v5.c45 (HIV)
[22] = biological target: Env of HIV isolate MS208.A1 (clade A) (HIV)
[23] = biological target: Env of HIV isolate TZBD.02 (clade C) (HIV)
[24] = biological target: HIV Env of isolate X1254.c3 (HIV)
[25] = biological target: HIV Env of isolate CH119.10 (HIV)
[26] = biological target: Env of HIV isolate CNE31 (clade C) (HIV)
[27] = biological target: Env of HIV isolate 3326.v4.c3 (clade CD) (HIV)
[28] = biological target: Env of HIV isolate BB539.2B13 (clade A) (HIV)
[29] = biological target: HIV Env of isolate CAP45.G3 (HIV)
[30] = biological target: Env of HIV isolate SF162.LS (clade B) (HIV)
[31] = biological target: HIV Env of isolate TV1.29 (HIV)
[32] = biological target: HIV Env of isolate DU422.01 (HIV)
[33] = biological target: Env of HIV isolate MN.3 (clade B) (HIV)
[34] = biological target: Env of HIV isolate HT593.1 (clade B) (HIV)
[35] = biological target: Env of HIV isolate UG021.16 (clade D) (HIV)
[36] = biological target: Env of HIV isolate CH070.1 (clade BC) (HIV)
[37] = biological target: Env of HIV isolate KER2018.11 (clade A) (HIV)
[38] = biological target: Env of HIV isolate 25925-2.22 (clade C) (HIV)
[39] = biological target: Env of HIV isolate 3637.v5.c3 (clade C) (HIV)
[40] = biological target: Env of HIV isolate 0921.v2.c14 (clade C) (HIV)
[41] = biological target: Env of HIV isolate DU151.02 (clade C) (HIV)
[42] = biological target: Env of HIV isolate T251-18 (clade AG) (HIV)
[43] = biological target: Env of HIV isolate 288.38 (clade C) (HIV)
[44] = biological target: Env of HIV isolate 6101.10 (clade B) (HIV)
[45] = biological target: HIV Env of isolate ZM53.12 (HIV)
[46] = biological target: HIV Env of isolate CNE15 (HIV)
[47] = biological target: HIV Env of isolate CNE7 (HIV)
[48] = biological target: Env of HIV isolate NKU3006.ec1 (clade D) (HIV)
[49] = biological target: Env of HIV isolate DU123.06 (clade C) (HIV)
[50] = biological target: Env of HIV isolate X2088.c9 (clade G) (HIV)

B1: ePGT121.15 (ePGT121.15.H6 VH and ePGT121.15.L1 VL) (antibody, V domains shown)
VH: QMQLQESGPGLVKPGETLSLTCSVSGASISSSYWSWLRETPGKGLEWIGYTHHSGDTNYAPSLKSRVHLGLHPSKNQVSLSLTSVTAADTAVYYCARTLHGRRIYGVVAFNEFFTYFYWEVWGKGTQVTVSS
VL: SDISVAPGETVRISCGGESIGSRAVQWYQHRAGQAPKLIIYNNQDRPPGIPERFSGSPDIDFGTTATLTITNVEAGDEATYYCHIWDSRRPTNWVFGGGTTLTVL
- IC50, pseudovirus neutralization [1]: 0.003 µg/mL
- IC80, pseudovirus neutralization [2]: 7.22 µg/mL
- IC50, pseudovirus neutralization [3]: 0.002 µg/mL
- IC80, pseudovirus neutralization [4]: 0.264 µg/mL
- IC50, pseudovirus neutralization [5]: 0.004 µg/mL
- IC50, pseudovirus neutralization [6]: > 50 µg/mL
- IC50, pseudovirus neutralization [7]: 0.007 µg/mL
- IC50, pseudovirus neutralization [8]: 0.017 µg/mL
- IC50, pseudovirus neutralization [9]: 0.015 µg/mL
- IC50, pseudovirus neutralization [10]: 0.589 µg/mL
- IC50, pseudovirus neutralization [11]: 0.003 µg/mL
- IC50, pseudovirus neutralization [12]: 0.028 µg/mL
- IC50, pseudovirus neutralization [13]: > 50 µg/mL
- IC80, pseudovirus neutralization [14]: 0.01 µg/mL
- IC50, pseudovirus neutralization [15]: 3.52 µg/mL
- IC50, pseudovirus neutralization [16]: 0.003 µg/mL
- IC50, pseudovirus neutralization [17]: > 50 µg/mL
- IC50, pseudovirus neutralization [18]: 0.006 µg/mL
- IC80, pseudovirus neutralization [19]: > 50 µg/mL
- IC50, pseudovirus neutralization [20]: 0.073 µg/mL
- IC80, pseudovirus neutralization [21]: > 50 µg/mL
- IC50, pseudovirus neutralization [22]: > 50 µg/mL
- IC50, pseudovirus neutralization [23]: 0.003 µg/mL
- IC80, pseudovirus neutralization [24]: 0.009 µg/mL
- IC80, pseudovirus neutralization [25]: 0.016 µg/mL
- IC50, pseudovirus neutralization [26]: 0.042 µg/mL
- IC50, pseudovirus neutralization [27]: 0.362 µg/mL
- IC50, pseudovirus neutralization [28]: > 50 µg/mL
- IC80, pseudovirus neutralization [29]: 24.1 µg/mL
- IC50, pseudovirus neutralization [30]: 0.003 µg/mL
- IC80, pseudovirus neutralization [31]: 0.01 µg/mL
- IC80, pseudovirus neutralization [32]: 0.022 µg/mL
- IC50, pseudovirus neutralization [33]: 0.004 µg/mL
- IC50, pseudovirus neutralization [34]: 0.008 µg/mL
- IC50, pseudovirus neutralization [35]: 0.006 µg/mL
- IC50, pseudovirus neutralization [36]: 0.001 µg/mL
- IC50, pseudovirus neutralization [37]: > 50 µg/mL
- IC50, pseudovirus neutralization [38]: 0.007 µg/mL
- IC50, pseudovirus neutralization [39]: > 50 µg/mL
- IC50, pseudovirus neutralization [40]: 0.454 µg/mL
- IC50, pseudovirus neutralization [41]: 0.002 µg/mL
- IC50, pseudovirus neutralization [42]: 0.056 µg/mL
- IC50, pseudovirus neutralization [43]: 0.001 µg/mL
- IC50, pseudovirus neutralization [44]: 0.002 µg/mL
- IC80, pseudovirus neutralization [45]: 0.062 µg/mL
- IC80, pseudovirus neutralization [46]: > 50 µg/mL
- IC80, pseudovirus neutralization [47]: 0.013 µg/mL
- IC50, pseudovirus neutralization [48]: > 50 µg/mL
- IC50, pseudovirus neutralization [49]: 0.003 µg/mL
- IC50, pseudovirus neutralization [50]: 0.003 µg/mL
